Results from article doi:10.1101/2021.11.13.468331 (bioRxiv, 2021).
Numbering of substitutions follows the chain as printed. Read-outs that look alike come from different tables or passages of the source.

B1: full-length b5R released from the linker-cleaved SCD1-cyt b5-b5R fusion (enzyme, mouse)
chain: GMGAQLSTLSHVVLSPVWFIYSLFMKLFQRSTPAITLENPDIKYPLRLIDKEVISPDTRRFRFALPSPQHILGLPIGQHIYLSTRIDGNLVIRPYTPVSSDDDKGFVDLVVKVYFKDTHPKFPAGGKMSQYLENMKIGDTIEFRGPNGLLVYQGKGKFAIRADKKSNPVVRTVKSVGMIAGGTGITPMLQVIRAVLKDPNDHTVCYLLFANQSEKDILLRPELEELRNEHSARFKLWYTVDKAPDAWDYSQGFVNEEMIRDHLPTPGEEPLILMCGPPPMIQFACLPNLERVGHPKERCFTF
B2: full-length cyt b5 L121 Trp mutant released from the linker-cleaved cyt b5-b5R fusion (natural protein, mouse)
chain: MAGQSDKDVKYYTLEEIQKHKDSKSTWVILHHKVYDLTKFLEEHPGGEEVLREQAGGDATENFEDVGHSTDARELSKTYIIGELHPDDRSKIAKPSDTLITTVESNSSWWTNWVIPAISAWAVALMYRLYMAEDENLYFQ
B3: full-length cyt b5 A124 Trp mutant released from the linker-cleaved cyt b5-b5R fusion (natural protein, mouse)
chain: B2 chain with W121L, A124W
B4: full-length cyt b5 V123 Trp mutant released from the linker-cleaved cyt b5-b5R fusion (natural protein, mouse)
chain: B2 chain with W121L, V123W
B5: full-length cyt b5 released from the linker-cleaved cyt b5-b5R fusion (natural protein, mouse)
chain: B2 chain with W121L
B6: full-length cyt b5 released from the linker-cleaved SCD1-cyt b5-b5R fusion (natural protein, mouse)
chain: GMAGQSDKDVKYYTLEEIQKHKDSKSTWVILHHKVYDLTKFLEEHPGGEEVLREQAGGDATENFEDVGHSTDARELSKTYIIGELHPDDRSKIAKPSDTLITTVESNSSWWTNWVIPAISALAVALMYRLYMAEDENLYFQ

What was measured:
Test in all cases: SEC
[1] = biological target: SCD1 released from the linker-cleaved SCD1-cyt b5 fusion (mouse)
[2] = biological target: T1, SCD1 released from the linker-cleaved SCD1-cyt b5-b5R fusion (mouse, UniProt P13516 1-355)
T1 sequence: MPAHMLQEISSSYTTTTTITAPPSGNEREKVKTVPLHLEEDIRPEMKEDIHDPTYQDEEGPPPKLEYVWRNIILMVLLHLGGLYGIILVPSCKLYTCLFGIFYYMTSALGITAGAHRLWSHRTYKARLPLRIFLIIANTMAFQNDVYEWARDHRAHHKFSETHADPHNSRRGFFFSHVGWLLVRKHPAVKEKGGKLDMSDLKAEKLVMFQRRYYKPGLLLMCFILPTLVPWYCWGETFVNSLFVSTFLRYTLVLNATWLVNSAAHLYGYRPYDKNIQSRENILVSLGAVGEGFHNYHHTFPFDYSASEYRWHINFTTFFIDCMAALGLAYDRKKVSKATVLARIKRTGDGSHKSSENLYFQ

[3] = biological target: T2, full-length b5R released from the linker-cleaved cyt b5-b5R fusion (mouse, UniProt Q9DCN2 1-301)
T2 sequence: B1 chain

[4] = biological target: T2, full-length b5R released from the …; remark: listed apart in the source
[5] = biological target: B1

## full-length cyt b5 M126A released from the linker-cleaved SCD1-cyt b5 fusion (from UniProt P56395 1-134) (natural protein)
[1]
  percent of cyt b5 dissociated from the complex: 50%

## B1
[2]
  binding result: binds

## B2
[3]
  binding result: binds

## B3
[3]
  binding result: binds

## B4
[3]
  binding result: binds

## B5
[4]
  binding result: binds

## B6
[5]
  binding result: binds
[2]
  binding result: binds
